By stoichiometry N is commonly meant the number of molecules, sites or subunits per partner or assembly.

Data on three substances can be found in PMC6975058.

Test [1] has as its target trastuzumab light chain produced alone in HEK293 (in vivo folded LC). Briefly: denaturing, non-reducing SDS-PAGE; MiniProtean TGX Stain-free gels 4-20%, band densitometry; shows only disulfide-linked species.
For test [2] the target is unchanged. Briefly: SEC; SEC-HPLC under native conditions, Zenix-C SEC-300, mobile phase PBS, 0.35 ml/min, absorbance at 214 nm; the isolated chain alone.
The target in test [3] is trastuzumab heavy chain produced alone in HEK293 (in vivo folded HC). Briefly: denaturing, non-reducing SDS-PAGE; MiniProtean TGX Stain-free gels 4-20%, band densitometry; shows only disulfide-linked species.
The target in test [4] is trastuzumab light chain, refolded in vitro by slow dialysis. Briefly: SEC; SEC-HPLC under native conditions, Zenix-C SEC-300, mobile phase PBS, 0.35 ml/min, absorbance at 214 nm; the isolated chain alone.

“trastuzumab light chain produced alone in HEK293 (in vivo folded LC) (domain or fragment)”: in test [1], the percent of LC in the 42 KDa band under denaturing conditions turned out to be 55%. In addition, the stoichiometry N in test [2] was 2.
For “trastuzumab heavy chain produced alone in HEK293 (in vivo folded HC) (domain or fragment)”, the stoichiometry N in test [3] amounted to 2.
“trastuzumab light chain, refolded in vitro by slow dialysis (domain or fragment)” returned a stoichiometry N in test [4] of 2.
